The target of the assay is beta-2-microglobulin (Homo sapiens, UniProt P61769). Description: SPR.

Bridges are numbered along the chain shown (N, C = ends). Where no end group is shown, it is not given here.

beta-2-microglobulin, sequence (P61769 22-119): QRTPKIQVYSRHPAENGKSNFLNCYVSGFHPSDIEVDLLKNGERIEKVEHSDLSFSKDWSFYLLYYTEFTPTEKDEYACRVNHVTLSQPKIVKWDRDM

CFETAWRQNEWC (disulfide 1-12 (inferred)) [pep331]: the affinity, expressed as Kd, was 300 µM.

These data come from PMC7831021 (2021).
